Measurements: paper PMC2910045 (Nucleic Acids Research, 2010)
Read-outs that look alike come from different tables or passages of the source.

How the values were obtained:
[1] = molecular target: the molecule itself; assay: SEC
[2] = molecular target: the molecule itself; assay: SEC; remark: listed apart in the source
[3] = molecular target: T1, SopB FL (Escherichia coli F plasmid, UniProt P62558 1-323); assay: X-ray crystallography
T1 sequence: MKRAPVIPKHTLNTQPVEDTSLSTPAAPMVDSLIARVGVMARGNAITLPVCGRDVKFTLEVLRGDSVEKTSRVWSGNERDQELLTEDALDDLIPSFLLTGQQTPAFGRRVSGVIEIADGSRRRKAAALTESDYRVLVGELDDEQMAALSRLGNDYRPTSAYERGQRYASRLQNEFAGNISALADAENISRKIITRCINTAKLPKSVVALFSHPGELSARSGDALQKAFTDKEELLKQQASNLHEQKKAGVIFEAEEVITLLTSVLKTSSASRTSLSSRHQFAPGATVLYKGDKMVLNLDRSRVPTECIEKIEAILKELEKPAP

[4] = molecular target: T2, SopB(155-323) (Escherichia coli F plasmid, UniProt P62558 155-323); assay: X-ray crystallography
T2 sequence: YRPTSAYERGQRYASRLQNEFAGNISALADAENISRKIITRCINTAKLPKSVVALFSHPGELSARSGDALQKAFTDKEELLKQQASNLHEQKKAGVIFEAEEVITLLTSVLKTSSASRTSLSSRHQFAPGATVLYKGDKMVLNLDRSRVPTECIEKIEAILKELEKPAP

[5] = molecular target: T1, SopB FL; assay: fluorescence polarization

In the case of LSSRHQFAPGATVLYKGDKMVLNLDRSRVPTECIEKIEAILKELEKPAP (domain or fragment, F plasmid, UniProt P62558 275-323, looked up) [SopB(275–323)], the “stoichiometry N” value [1] is reported as 2.

B1: SopB(155–272) (domain or fragment, F plasmid, UniProt P62558 155-272, looked up)
chain: YRPTSAYERGQRYASRLQNEFAGNISALADAENISRKIITRCINTAKLPKSVVALFSHPGELSARSGDALQKAFTDKEELLKQQASNLHEQKKAGVIFEAEEVITLLTSVLKTSSASR
B1 was tested, and the “stoichiometry N” value [2] was 2.

B2: sopC 18mer 5-bromouracil (dsDNA)
DNA 1: CTGGGACCATGGTCCCAG
DNA 2: CTGGGACCATGGTCCCAG
modifications: 5-bromouracil substitutions (positions not given)
B2: binds [3]; binds [4].

B3: sopC 43mer (FP) (dsDNA)
DNA 1: GGTCTGATTATTAGTCTGGGACCACGGTCCCACTCGTATCGTC
DNA 2: GACGATACGAGTGGGACCGTGGTCCCAGACTAATAATCAGACC
B3 gave a Kd [5] of 324 ± 43 nM.

B4: sopC 18mer (FP) (dsDNA)
DNA 1: CTGGGACCATGGTCCCAG
DNA 2: CTGGGACCATGGTCCCAG
In the case of B4, the Kd [5] is reported as 223 ± 44 nM.
